In patent US6875594B2, “Methods of ligating expressed proteins” (The Rockefeller University, priority 1997, dated 2005):

Tests used:
[1] = target: T1, consolidated ligand NH2-PVpYENVG6>(PPAYPPPPVPKCONH2) (Homo sapiens, UniProt P00519, C100A/N120G/S121C); test: Fluorescence-based titration binding assay; conditions: consolidated ligand binding both SH3 and SH2 domains; read-out: equilibration dissociation constant (Kd) for binding to the ligand
T1 construct: intein-CBD (on the SH3 segment, removed on thioester formation) (C, cleaved yes); GST-SH3-IEGR (upstream of the SH2 segment, removed by thrombin and Factor Xa) (N, cleaved yes); made in house; host or cells: E. coli (BL21 for SH3-intein-CBD, DH5-α for the GST fusion that gives SH2)
Description: Under these conditions, no protein precipitation was observed and NMR analysis indicated the sample had adopted a native fold. A similar strategy was therefore used to prepare the complete [SH2-^15N]SH(32) construct for functional and structural analysis. The binding affinity of Abl-[SH2^15N]SH(32) for the consolidated ligand, NH2-PVpYENVG6>(PPAYPPPPVPKCONH2) (SEQ ID NOs: 5 and 6, respectively), which binds both the SH3 and the SH2 domains simultaneously (78) was studied using a fluorescence-based titration assay. (The C-terminal glycyl residue is linked to the N ε of lysyl in the second peptide segment). […] This affinity is characteristic of the dual domain construct.
Fluorescence Binding Assay: The equilibrium dissociation constants of the protein constructs for the consolidated ligand were determined using the previously describedfluorescence-based titration assay (78). The binding constant for the segment labeled construct was 300 (±100) nM. Experiments were performed on a Spex Fluorolog-3 spectrophotometer fitted with a Neslab temperature control unit.

poly(glu,tyr) [2] = test: Csk kinase assay, transfer of 32P from γ-32P-ATP to poly(glu,tyr); type: biochemical
Method: In each of the two ligation reactions, the crude product mixture was nearly free of unligated material, although both preparations were contaminated with GroEL and DnaK. Although yields were not optimized, an estimated 0.5 mg of ligation product per 2.5 L bacterial cell culture was produced. […] Kinase assays were performed as described by Cole et al., J. Biol. Chem. 269, 30880 (1994) where transfer of ^32P from γ-^32P-ATP to poly(glu,tyr) was monitored. Briefly, poly(glu,tyr) reactions were carried out in 60 mM Tris-HCl, pH 7.4, 2 mM MnCl2, 10 mM dithiothreitol, 200 μg/mL BSA for 2 minutes at 30° C., quenched with EDTA, run out on 10% SDSPAGE and phosphopoly(glu,tyr) analyzed by scintillation counting. […] Further characterization of (Csk^PEP) and (Csk^pPEP) by electrospray mass spectrometry gave molecular masses in good agreement with the predicted values (FIG. 2C).

poly(glu,tyr) [3] = target: T2, poly(glu,tyr) (Homo sapiens, UniProt P41240); conditions: wild type Csk, reference (32), cited from earlier work
T2 construct: N-terminal methionine residue in the protein produced as an intein-CBD fusion was completely removed (no such cleavage is observed); Tyr unphosphorylated in Csk^PEP, phosphorylated in Csk^pPEP; made in house; host or cells: E. coli DH5α, co-expressed with GroES/GroEL

Kd [1] | Molecule | catalytic activity (kinase assay) (poly(glu,tyr) [2]) | Km of poly(glu,tyr) (poly(glu,tyr) [3]) | kcat (poly(glu,tyr) [3]) | Km (poly(glu,tyr) [3]; read-out: Km of ATP)
300 nM | Abl-[SH2^15N]SH(32): Ligated human Abl SH3-SH2 domain pair with G120 C121 mutations, only the SH2 domain 15N labeled (SEQ ID NO: 1) (protein, 15N label on SH2 domain) MLFVALYDFVASGDNTLSITKGEKLRVLGYNHNGEWAEAQTKNGQGWVPSNYITPVGCLEKHSWYHGPVSRNAAEYLLSSGINGSFLVRESESSPGQRSISLRYEGRVYHYRINTASDGKLYVSSESRFNTLAELVHHHSTVADGLITTLHYPAPKRGIHRD | – | – | – | –
– | wild type Csk: Full-length wild-type human C-terminal Src kinase, 50 kDa protein (protein, UniProt P41240 1-450, looked up, full-length, Full-length wild-type human C-terminal Src kinase, 50 kDa protein) MSAIQAAWPSGTECIAKYNFHGTAEQDLPFCKGDVLTIVAVTKDPNWYKAKNKVGREGIIPANYVQKREGVKAGTKLSLMPWFHGKITREQAERLLYPPETGLFLVRESTNYPGDYTLCVSCDGKVEHYRIMYHASKLSIDEEVYFENLMQLVEHYTSDADGLCTRLIKPKVMEGTVAAQDEFYRSGWALNMKELKLLQTIGKGEFGDVMLGDYRGNKVAVKCIKNDATAQAFLAEASVMTQLRHSNLVQLLGVIVEEKGGLYIVTEYMAKGSLVDYLRSRGRSVLGGDCLLKFSLDVCEAMEYLEGNNFVHRDLAARNVLVSEDNVAKVSDFGLTKEASSTQDTGKLPVKWTAPEALREKKFSTKSDVWSFGILLWEIYSFGRVPYPRIPLKDVVPRVEKGYKMDAPDGCPPAVYEVMKNCWHLDAAMRPSFLQLREQLEHIKTHELHL | fully active | 48 ± 2 µg/mL | 0.667 ± 0.083 s⁻¹ | 12 ± 1 µM
